Literature values as cited in paper PMC7883480.

How the values were obtained:
CXCR4 (Homo sapiens) = CXCR4 (Homo sapiens) (UniProt P61073); assay: radioligand competitive displacement
[1] = biological target: GIP receptor (Homo sapiens) (UniProt P48546); assay: competitive binding assay
[2] = biological target: GLP-1 receptor (Homo sapiens) (UniProt P43220); assay: SPA binding assay

| Substance | Kd (CXCR4 (Homo sapiens)) [nM] | Ki [1] [nM] | Ki [2] [nM] |
| --- | --- | --- | --- |
| CXCL12 1-68 (from UniProt P48061) | 1.44 | – | – |
| CXCL12 3-68 (from UniProt P48061) | 464 | – | – |
| GIP 1-30 (from UniProt P09681) | – | 0.89 | – |
| GIP 3-30 (from UniProt P09681) | – | 2.3 | – |
| GLP-1 7-36 (from UniProt P01275) | – | – | 0.102 |
| GLP-1 9-36 (from UniProt P01275) | – | – | 156 |
